Data on one protein can be found in FireProtDB (doi:10.1021/bi000849s).

For the data set the following is noted: Homo sapiens, Thermal, DSC, reversible: yes, whole UniProt chain shown.

B1: Lysozyme C wild type, P61626 (protein)
chain: MKALIVLGLVLLSVTVQGKVFERCELARTLKRLGMDGYRGISLANWMCLAKWESGYNTRATNYNAGDRSTDYGIFQINSRYWCNDGKTPGAVNACHLSCSALLQDNIADAVACAKRVVRDPQGIRAWVAWRNRCQNRDVRQYVQGCGV
In general, Tm refers to the temperature at the midpoint of the melting transition. As for B1, the Tm reads like this: (pH 2.2, glycine hydrochloride 0.05 M) 57.5 °C; (pH 2.3, glycine hydrochloride 0.05 M, KCl 0.2 M) 56.2 °C; (pH 4, sodium acetate 0.02 M) 80.1 °C; (pH 4.5, sodium acetate 0.02 M, KCl 0.2 M) 77.7 °C.
